The values that follow come from the DeepSol protein solubility set.

This data set in a line: soluble on expression in E. coli; label from the status in PepcDB or PDB records.
In the case of “MGGSHHHHHHGMASLAPGSSRVELFKRQSSKVPFEKDGKVTERVVHSFRLPALVNVDGVMVAIADARYETSFANSLIDTVAKYSVDDGETWETQIAIKNSRASSVSRVVDPTVIVKGNKLYVLVGSYNSSRSYWTSHGDARDWDILLAVGEVTKSTAGGKITASIKWGSPVSLKEFFPAEMEGMHTNQFLGGAGVAIVASNGNLVYPVQVTNKKKQVFSKIFYSEDEGKTWKFGKGRSAFGCSEPVALEWEGKLIINTRVDYRRRLVYESSDMGNTWLEAVGTLSRVWGPSPKSNQPGSQSSFTAVTIEGMRVMLFTHPLNFKGRWLRDRLNLWLTDNQRIYNVGQVSIGDENSAYSSVLYKDDKLYCLHEINSNEVYSLVFARLVGELRIIKSVLQSWKNWDSHLSSICTPADPAASSSERGCGPAVTTVGLVGFLSHSATKTEWEDAYRCVNASTANAERVPNGLKFAGVGGGALWPVSQQGQNQRYHFANHAFTLVASVTIHEVPKGASPLLGASLDSSGGKKLLGLSYDKRHQWQPIYGSTPVTPTGSWEMGKRYHVVLTMANKIGSVYIDGEPLEGSGQTVVPDERTPDISHFYVGGYKRSGMPTDSRVTVNNVLLYNRQLNAEEIRTLFLSQDLIGTEAHMD”, the “soluble on expression in E. coli” value is “soluble”.
For “MPKHIIDEIESLSLATGFILKNGDFTEEKSLLVKPTMGGTWHWSPIKGLHSQDSIRKTRAYILQEIARMTIYPEAGVSPTLRRKKGIVIGVARAVSTELYHIVENDLIEEEMDTAKLAVGYDGETIVIKNDVDSKWKEELSKPLNLSETENKVIQRLLLISHGVIPLQGYSLVTTSHHYNDKSKRAFSAVERQFFSRCDQLSWWKEDEEALRDAMWHKAGHPVKISFKKEIACSITIKQSLANAGIGSVACRLPATEDVVWKAEAYRNLLKTLSPIFDDEVKWEALDEMLSYLNHFSAARPTEVVTVHNAPTHLMSLDTREKVVTWIAQWCSQNAEKVAICLGFHTALLENAGKFPGPSYSLMVLRTNVDSYILGTKLFSDYTVFKAKLRQLMDSVS”, the “soluble on expression in E. coli” value is listed as “soluble”.
In the case of “MSLPRITALRTIRLPERPKLIWVEVETEDGLTGLGETFRGAQAVEAVLHEQTAPAIIGRAAENITSISSELLNPYVGFGSSSAEVRAASAVDIALWDLAGQRAGVPLHVALGGAARDRVPVYATCAGYDFNTSLGGRRSIGSAELSTGPYDDQVAFMRDAGVLAESLVAEGYAAMKIWPFDDFASITPHHISLTDLKDGLEPFRKIRAAVGQRIEIMCELHSLWGTHAAARICNALADYGVLWVEDPIAKMDNIPAVADLRRQTRAPICGGENLAGTRRFHEMLCADAIDFVMLDLTWCGGLSEGRKIAALAETHARPLAPHDCTGPVALMAGLHLALHAPTAIFQEVVRASLATWYADLVDHLPVIQEGIALAPTRPGLGTALLPHVRKIAGAVVRESGKPREGHHHHHH”, the “soluble on expression in E. coli” value was “soluble”.
The same measure for “MSFRIGRRCFSKQSYDAIIIGGGHNGLTAAAYLTKAGKKVCVLERRHVVGGAAVTEEIVPGFRFSRASYLLSLLRPVVMQELNLKKFGLRYHIRNPNSFTPIRNTHESLLLGMDMAENQKEIAKFSQRDAGNYPKYEHFISEIVHSFEQLMDYEPLDLQKPIHKLLPHLYLLFKTVQPLGLRNAVDFYELMTAPISKIMNKWFESDVLKATLGTDGVIGLAASPMDPGTGYVLLHHVIGGLDEHKGAWGYVYGGMGAVSNAIAECAKSHGAEIYTEQDVQEVLLDGNVAKGVRLSNGKELHSKIVMSNATPHVTFNHLVKKESLPEEFHRNINQIDYTSPVTKINVAVKELPNFLAKPNQGSEPMPHHQTTIHMNCENMQVVHDAVMDYKNGRYSRRPVIEMTIPSSVDRTIVDSADGHVVLLFTQYTPFSPKDGEWTEEKKTEYAKHVFSEIDAYAPNFSSSVIGYDILTPPDIQNTFGITGGNIFHGSMSLDQLYVSRPISKWSNYSTPIESLYLCGSGAHPGGGVTGAPGRLSALHALKHF”: “not soluble”; for “MNALSGLQVITRRPDKRSASGVTKKCRKSLKTAPDTKTVFKGSFASHYVDKSSQVNPGTHITVRGSIHGEVSIKKMLKGSRCRTAL”: “not soluble”.
For “MDFKDILRQLSERIEKLRDNLQTEEATKNALIMPFIQAMGYDVFNPLEVIPEFTCDIGTKKGEKIDYAIMRDNEPIILIECKHWRDTLTLADNQLLRYFHVSSAKFGMLTNGIIYRFYTDLDQANKMDEKPFLEVNMLDLRDNQIEELKQFHKSYFDVDKILSTASELKYMKELKDLILAEMNEPSEQFVRMLAKQVYDGIITAKIFEQFKDLTQKSFKSVINDLITARFKTVMDKSKEVAASEEQSQEQDDSNEPLVVTTEAEMEAYMIVKGILRKYINIDRIASRDTQSYFSVLLDDNNRKPICRFYFNTANKYLATFEEGKKEVKTLLNSLDDLFMHEKSIAKSLALYVDTEESALIVKSKE”, the “soluble on expression in E. coli” value was “soluble”.
Consider “MGSDKIHHHHHHMTTPTPVRAIVPTWLYEGLGLLVANPKVGKSTLMLQIVVAVTKGGEMWGQSVPRAKVLMIDLETNERRLRRKLEQAGAVGIESGWLLYATSWPRGLLGIDEIANTLDRDPEIKLVVIDTLQRFRDPGAGKQNAYAADYEALGPLQQLCRDRPGLAIVCVHHKRKSISDDPIDSISGSAAIAGACDSIWIMSRKGSEYTLHIQGRDWERDEDTFPIERVDQGWQLVNGPRYSSNEAEVLKHLEISGGMTGPQLGEALGIHRVSAYERLKRMADRGLVRFAGEHWHVS”, for which the “soluble on expression in E. coli” value was “not soluble”.
The same measure for “MGSDKIHHHHHHMETARHRNTWHIHPDPEALARRLAAAVARMAREAITARGAFHLVVAGGTTPRAAYALLPQLGSDWQCWHLYHGDERCLPPQDPDRNSLMLDTVWLSRVPIPTRQIHHIPAERGADVAARDYAAVLPPHAFDLVLLGVGEDGHTASLFPGHDWGMAKNGPATIAVHDAAKAPPQRVSLSGWRLQYTREMFFMAAGGGKRSALTAWRQGEPIPAATVGTTADIWLDNTAWPEVVPGTI”: “not soluble”.
On to “MSLGNSYAGQLKTTRFEEVLHNSIEASLRSNNLVPRPIFSQLYLEAEQQLAALEGGSRVDNEEEEEEGEGGLETNGPPNPFQLHPLPEGCCTTDGFCQAGKDLRLVSISNEPMDVPAGFLLVGVKSPSLPDHLLVCAVDKRFLPDDNGHNALLGFSGNCVGCGKKGFCYFTEFSNHINLKLTTQPKKQKHLKYYLVRNAQGTLTKGPLICWKGSEFRSRQIPASTCSSSLFPALESTAAFPSEPVPGTNPSILMGAQQAGPASDHPSLNAAMGPAVFNGKDSPKCQQLAKNNLLALPRPSALGILSNSGPPKKRHKGWSPESPSAPDGGCPQGGGNRAKYESAGMSCVPQVGLVGPASVTFPVVASGEPVSVPDNLLKICKAKPVIFKVFVNGATQMVALGPAEEGHHHHHH”, for which the “soluble on expression in E. coli” value was “not soluble”.
The same measure for “MRLSFLTLQRRNAVGDALRHKSALRRILKTGRRASGTACDAERRTIVEKLPHDSLEHHHHHH”: “not soluble”.
